# Measured values reported in IntAct's records for PubMed 20972459.
# B1: WW domain-binding protein 2 (Homo sapiens), Q969T9 (parent)
# chain: MALNKNHSEGGGVIVNNTESILMSYDHVELTFNDMKNVPEAFKGTKKGTVYLTPYRVIFLSKGKDAMQSFMMPFYLMKDCEIKQPVFGANYIKGTVKAEAGGGWEGSASYKLTFTAGGAIEFGQRMLQVASQASRGEVPSGAYGYSYMPSGAYVYPPPVANGMYPCPPGYPYPPPPPEFYPGPPMMDGAMGYVQPPPPPYPGPMEPPVSGPDVPSTPAAEAKAAEAAASAYYNPGNPHNVYMPTSQPPPPPYYPPEDKKTQ
# Variants of: B1
# Conditions: with wwtr1_human WWTR1, Q9GZV5
# Chain of wwtr1_human WWTR1, Q9GZV5 (Q9GZV5 whole entry): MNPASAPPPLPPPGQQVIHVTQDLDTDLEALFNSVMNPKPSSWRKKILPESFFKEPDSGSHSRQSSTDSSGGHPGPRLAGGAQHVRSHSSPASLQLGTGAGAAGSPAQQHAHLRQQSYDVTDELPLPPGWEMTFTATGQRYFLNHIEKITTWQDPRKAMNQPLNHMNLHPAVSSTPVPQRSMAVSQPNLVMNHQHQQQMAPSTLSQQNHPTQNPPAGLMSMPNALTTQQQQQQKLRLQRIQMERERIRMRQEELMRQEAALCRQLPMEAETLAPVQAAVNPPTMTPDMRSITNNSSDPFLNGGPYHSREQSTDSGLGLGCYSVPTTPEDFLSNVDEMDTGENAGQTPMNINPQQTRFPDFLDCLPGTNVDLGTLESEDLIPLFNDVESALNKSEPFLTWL
row,effect of a mutation on the interaction,Variant
1,disrupting interaction,Y200A
